{
  "source": "the nanobody polyreactivity screen of Harvey et al. (2022)",
  "data": [
    {"assay": "yeast display, Sf9 membrane polyspecificity reagent, FACS + sequencing; frameworks hold sequencing errors", "summary_of_the_method": "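Galactose-induced (36–48 hours) yeast carrying a synthetic nanobody display library were exposed to 10% biotinylated, detergent-solubilized Sf9 membrane reagent at 4 °C for 1 hour. FACS followed streptavidin microbead enrichment, using low and high (top ~1%) gates for expression (anti-HA) and reagent binding (streptavidin). Colony PCR, MiSeq 2 × 250 sequencing and CDR-length filtering followed. Labels for polyreactivity reflect the gate of origin.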", "values": [
      {"sequence": "QLKLEESGGGLVQAGGSLRLSCAASGITFPWYAMGWYRQAPGKERELVAAINRAGNTNYADSVKGRFTISRDNAKNTVYLQRNSLKTEDTAVYYCAARWRYKYTLGYWGQGTQVTVSS", "polyreactivity (PSR sort gate)": "high polyreactivity"},
      {"sequence": "QLQLEESGGGFVQAGGSLRISCAASGAIFLSYAMGWYRQAAAKEMEFVAGISYSGGTTYYADSVKGRFTISRDNAKNTVYLQMNSLKQEVTAVYYCAKRTAVWTSGGYRKRDYWGQATQVTVSS", "polyreactivity (PSR sort gate)": "high polyreactivity"},
      {"sequence": "QLQLEESGGGLVQAGGSLRLSCAASGRTFESYGMGLYRQATGKERELVAAISHNADSTYADSVKGRFTISRDNAKNTVYLQMNSLKSEDTAVYYCNAETPVRSDYWGQGTQVTVSS", "polyreactivity (PSR sort gate)": "low polyreactivity"},
      {"sequence": "QLQLEESGRGLVQAGGSLRLSCAASGSIFYSNTMGWYRQAPGKERELVAAISTSDTSTYYADSVKGRFTISREKAKNTVYLQMNSLKPEDTAVYYCNAVGSIVLYGYWGQGTQVTVSS", "polyreactivity (PSR sort gate)": "low polyreactivity"},
      {"sequence": "QLQLGESGGGLVQAGGSLRLSCAASGSTFIVYAMGWYRQAPGKVRELVAAISSDGSTYYADSVKGRFTISRDNAKNTVYLQMNRLKPEYTAVYYCAAYVYDADTGYDYWGQGTQVTVSS", "polyreactivity (PSR sort gate)": "low polyreactivity"},
      {"sequence": "QLQLHESGGGLVQAGGCLSCTASGTIFGQGDMGWYRQAPGKERELVATINDGASTYYADSVKGRFTISRDKAKNTVYLKKNSLKPDDNAVYYCAVFTDITTYFGYWGQGTQVTVSS", "polyreactivity (PSR sort gate)": "low polyreactivity"},
      {"sequence": "QLQLLESAVGLVQAGGSLRLSCASSGRIFTQNTMGWYRQAPAKESELVAAINYSGGRTNYADSVKGRFTISRDNAKNTVYLQMNSLKPEDTAVYYCAAGYRRATYGYWGQGTQVTVSS", "polyreactivity (PSR sort gate)": "high polyreactivity"},
      {"sequence": "QLQLLESGGGIVQAGGILRLSCAASGFTFAHYAMGWYRQAPGIERELVAAITSRGGSTYYADSVKGRFTISRDNAKNPVYLQMNSLKPEDTAVYYCAAKTLLFIFGYWGQGTHVTVSS", "polyreactivity (PSR sort gate)": "high polyreactivity"},
      {"sequence": "QLQLQEGGGGLVQAGGSLRLSCAASGYISYGDVMGSYRQAPGEERELVASIGLDATTNYADSVKGRFNISRDNAKITVYLQMNSLKPEDTAVYYCAAVVGSGVLCGYWGQGTQMTVSS", "polyreactivity (PSR sort gate)": "high polyreactivity"},
      {"sequence": "QLQLQESGGGLVQAGGSLRLSCAWSGTIAFTRDLGSYRQAPGKDREFVASIDRGASTYYADSVKGRFTISRDNAKNTVYLQMNSLKPEDTAVYYRAVIAPFYSSFAYWGQGTQVTVSS", "polyreactivity (PSR sort gate)": "high polyreactivity"},
      {"sequence": "QLQLQESGGGLVQAGGSLRLSSAASGTISPLPAMGLYSQATGKERELVPGIDTGAITNYADSVKGRFTISRDNAKHTVYLQMNSLKPEDTAVYYCAVFPAAYDYYERYYTEWGQGTQVTVSS", "polyreactivity (PSR sort gate)": "high polyreactivity"},
      {"sequence": "QLQLQESGGLVQAGGSLRLSCAASGSISGRNVIGCYRQAPGKEREYVASITDGSSTNYADSVKGRFTISRDNAKNTVYLQMNSLKPKDTAVYYCAAYAQRAKSFGYWGRGTQVTVSS", "polyreactivity (PSR sort gate)": "low polyreactivity"},
      {"sequence": "QLQLVESFTGLVQAGGSLRLSCAASVPTFASYAMGWSRQAPGKERELVAVITRGVRTYYADSVKGRITISRDNAMNTVYLQMNSLKPEDTAVYDCAKERYNANYDTSLYDYWGQGTQGTVSS", "polyreactivity (PSR sort gate)": "low polyreactivity"},
      {"sequence": "QLQLVESGACLVQAGGSLRLSCAASGRIFTSYSMGWYRHAPGKEREMVAAINRGADTYYADSVKGRFTISRDNAKNTVYLQMNSVKPEDNAVYYCNAADAVSDYPDFQIYDYWGQGTQVTVSS", "polyreactivity (PSR sort gate)": "low polyreactivity"},
      {"sequence": "QLQLVESGAGRVQAGGSLRLRCAAAGSILRDNAMVWYRQAPWKEREFVADIRGSDDTTYYADSVKGRFTISRDNGKNSVYLQMNSLKPEDTAVYYSNRDDAWQEYDYWGQGTQVTVSS", "polyreactivity (PSR sort gate)": "low polyreactivity"},
      {"sequence": "QLQLVESGGGLDQAGGSLRLSCAASGFTFVSYAMGWYRQAPGKERELVAVISYRAGSTYYADSVKGRFTISRDNAKNTVYLQMYSLKPEDTAVYYCATDRYSRRNDYWGQGTQVTVSS", "polyreactivity (PSR sort gate)": "high polyreactivity"},
      {"sequence": "QLQLVESGGGLFQAGGSLRISCAPSGRIFKLNAMGWYRQAPGKEMELVAAINSGTRTYYADSVKGRFTISSYNAKNTVYLQLNSLKPEDTAVYYCAAEGVWWYSRYDYWGQGTQVTVSS", "polyreactivity (PSR sort gate)": "high polyreactivity"},
      {"sequence": "QLQLVESGGGLVKAGGSLRLSCAASGSTFGGNAMGWYRQAPGKERELVASISSSGGRTYYADSVKGRFTISRDNAKNTVYLQMNSLTPEDTAVYYCARRYYYQYRYDYWGQGTQVTVSS", "polyreactivity (PSR sort gate)": "high polyreactivity"},
      {"sequence": "QLQLVESGGGLVPAGGSLRLSCAASGIIFTSNTMGWYRQAPGKEREFVASINWNGSSTYADSVKGRFTISRDNGKNTVYLEMNSLKPEDTAVYYCNADYISNSVQFSLYDYWGQGTQVTVSS", "polyreactivity (PSR sort gate)": "low polyreactivity"},
      {"sequence": "QLQLVESGGGLVQAGGRLRLSCAASGRTFYDYAMGWYRQSPGKERELVAAIDNGGSTYYADSVKGRFTISRDNAKNTVYLQKNSLKPEDTAVYYCNADGATVWSLEYCGQGTQVTVSS", "polyreactivity (PSR sort gate)": "low polyreactivity"},
      {"sequence": "QLQLVESGGGLVQAGGRLRLTCAASGSIFFGNVMGLYIQAPGKERELVAVISWSGGTTYYADSVKGRFTISRDNAKNTVYLQMNSLKTEDTAVYYCNARYLRRGDYWGQGTQVTVSS", "polyreactivity (PSR sort gate)": "low polyreactivity"},
      {"sequence": "QLQLVESGGGLVQAGGSLRISCAASGFIFNGYAMGWSRQAPGKERELVAAITADVGDTYYADSVKGRFTLSRDNAKYTVYLQLNSLKPDDPAVYYCAADQAEWLDPDDYWGQGTQVTVSS", "polyreactivity (PSR sort gate)": "low polyreactivity"},
      {"sequence": "QLQLVESGGGLVQAGGSLRLRCAASGNTFYQYAMGWYIQAPGQQREMVAAISSGGRTNYADSVKGRFTISRDNAKNNVYLQMNSLKPEDTAVYYFAADVGYFKSDYWGQGTQVTVSS", "polyreactivity (PSR sort gate)": "low polyreactivity"},
      {"sequence": "QLQLVESGGGLVQAGGSLRLSCAASGFTFRCNAMGWYRQAPGKEMELVAGITSGGSTNYADSVKGRFTISRDNAKNTVYLQMNSLKPEDTAVYYCNAAWYRWKQRYDYWGQGTQVTVSS", "polyreactivity (PSR sort gate)": "low polyreactivity"},
      {"sequence": "QLQLVESGGGLVQAGGSLRLSCAASGGIFPYYAMGWYRQAPGKEMELVAAISRSGGITYYADSVKGRFTISRDNAKNTVYLQMNSLKPEDTAVYYCAALSRWRYKRYDYWGQGTQVTVSS", "polyreactivity (PSR sort gate)": "high polyreactivity"},
      {"sequence": "QLQLVESGGGLVQAGGSLRLSCAASGIIFRWYAMGFYRQAPGKERELVAAITSSGGRTYYADSVKGRFTISRDNAKNTVYLPMNILKPEDTAVYYCAASYYIVGCDPYDYWGQGTQVTVSS", "polyreactivity (PSR sort gate)": "high polyreactivity"},
      {"sequence": "QLQLVESGGGLVQAGGSLRLSCAASGITFGANTMGWYRQAPGTERELVAAITISGGITHYADSVKGRFTISRDNAKNTVYLQMNSLKPEDTAVYYCAAGAYWRLYPYRQRNGGRMYYWGQGTQVTVSS", "polyreactivity (PSR sort gate)": "low polyreactivity"},
      {"sequence": "QLQLVESGGGLVQAGGSLRLSCAASGITFYVYAMGCYRQAPGKERELVAAISTSGGSTYYADSVKGRFTISRDNAKNTVYFQMNSLKPEDTAVYYCAAEELRYGLYEYDYWGQGTQVTVSS", "polyreactivity (PSR sort gate)": "high polyreactivity"},
      {"sequence": "QLQLVESGGGLVQAGGSLRLSCAASGLILPYYAMGWYRQAPGKERALVAAISRTGGRTSYADSVKGRFTISRDNAKNTVYLQMNSLKPEDTAVYYCAARYGRYYGYNYWGQGTQVTVSS", "polyreactivity (PSR sort gate)": "high polyreactivity"},
      {"sequence": "QLQLVESGGGLVQAGGSLRLSCAASGLILYSYAMGRYRQAPGKERELVADISSGGITNYADSVKGRFTISRDNAKNTVYLQMNSLKPADTAVNYCAADTRPVNYILYEYWGQGTQVTVSS", "polyreactivity (PSR sort gate)": "low polyreactivity"},
      {"sequence": "QLQLVESGGGLVQAGGSLRLSCAASGLTFSYYAMGSYRQAPGKERELVAAITSSGGNTYYADSVKGRFTISRDNANNTVYLQMNSMKPEDTAVYYCAAERYQSFCYGKRPRRPRYDYWGLGTQVTVSS", "polyreactivity (PSR sort gate)": "high polyreactivity"},
      {"sequence": "QLQLVESGGGLVQAGGSLRLSCAASGLTFYVYAMGWYRQAPCKERELVAAISSGGRTYYADSVKGRFTISRDNAKNTVYLQMNSLKPEDTAVYYCAAVRHRNYGYWGQGTQVTVSS", "polyreactivity (PSR sort gate)": "high polyreactivity"},
      {"sequence": "QLQLVESGGGLVQAGGSLRLSCAASGLTYEGYAMGWYRQAPGKERELVAAITGSGSTTYYADSVKGRFTISRDNAKNTVYLQMNSLKPEDSAVYYCAADVSYKLYWGQGTQVTVSS", "polyreactivity (PSR sort gate)": "low polyreactivity"},
      {"sequence": "QLQLVESGGGLVQAGGSLRLSCAASGRIFRRYTMRSYRQAPGKERELVAAITWKGGRTSYADSVKGRFTISRDNANNTVYLQMNSLKPQDTAVYYCAAECPSRYHTFEFWGQGTQVTVSS", "polyreactivity (PSR sort gate)": "high polyreactivity"},
      {"sequence": "QLQLVESGGGLVQAGGSLRLSCAASGRIFTGNAMGWYRQAPGKERELVAAISYSGGSTYYADSVKGRFTISRDNAKNTVYLQMNSLKPEDTAVYYCAAAGRYLRYGYWGQGTQVTVSS", "polyreactivity (PSR sort gate)": "high polyreactivity"},
      {"sequence": "QLQLVESGGGLVQAGGSLRLSCAASGRIFWPNALGWYRQAPGKEREFVAAIRWSSDRTYYADSVKGRFTISRDNAKNTVYLQRNSLKPEDTAVYYCNAVRYVISKYDYWGQGTQVTVSS", "polyreactivity (PSR sort gate)": "high polyreactivity"},
      {"sequence": "QLQLVESGGGLVQAGGSLRLSCAASGRNFGYNAMGWYRPAPGKERELVAVINIDGSTNYADSVKGRFTISRDNAKNTVYLQLNSLNPEDTAVYYCAARYWKSYRNGGFFGFTYYYWGQGTQVTVSS", "polyreactivity (PSR sort gate)": "high polyreactivity"},
      {"sequence": "QLQLVESGGGLVQAGGSLRLSCAASGRTFIHYAMGWYRQAPGKERELVAAISDDASSTYYADSVKGRFTISRDNAKNTVYLQMNSLKPEDTAVYYCNVELAKVGGVEYDYWGQGTLVTVSS", "polyreactivity (PSR sort gate)": "low polyreactivity"},
      {"sequence": "QLQLVESGGGLVQAGGSLRLSCAASGSIFFSYAMGWYRQAPGKERELVAAIDYSGGGTYYADSVKGRFTISRDNAKNTVYLQMNSLKPEDTAVYYCNSDTEVWADTFISYRALNYWGQGTQVTVSS", "polyreactivity (PSR sort gate)": "low polyreactivity"},
      {"sequence": "QLQLVESGGGLVQAGGSLRLSCAASGSIFHRYAMGWYRQAPGKEREFVAAISGRGGSTYYADSVKGRITISRDNAKNTVYLQMNSLKPEDTAVYYCAADSSLFYGRPRYYYWGQGTQVTVSS", "polyreactivity (PSR sort gate)": "high polyreactivity"},
      {"sequence": "QLQLVESGGGLVQAGGSLRLSCAASGSIFNQYAMGWYRQAPGKERELVAAISSGSTYYADSVKGRFIISRDNAKNTVYLQMFSLKPEDTAVYYCAAGRNRRSSGIYVSKYWGQGTQETVSS", "polyreactivity (PSR sort gate)": "high polyreactivity"},
      {"sequence": "QLQLVESGGGLVQAGGSLRLSCAASGSIFPDYAMGWYRPAPAKERELVAAITWRDDSTYYADSVKGRFTISRDNAKNTVYLQMNSLKPEDTAVYYCNASALDPLYAKDDYWGQGTQVTVSS", "polyreactivity (PSR sort gate)": "low polyreactivity"},
      {"sequence": "QLQLVESGGGLVQAGGSLRLSCAASGSILYIKTMGWYRQAPGKERELVAAITYSGGSTYYADAVKGRFTISRDNAKNTVYLQMTSLKPEDTAVYYCAADGYYGGFNYWGQGTQVTVSS", "polyreactivity (PSR sort gate)": "low polyreactivity"}
    ]}
  ]
}
